Positions count from the first letter of the chain named.

One molecule from patent US20250066499A1 (SUNSHINE GUOJIAN PHARMACEUTICAL SHANGHAI, published 2025) can be followed below.

For one experiment, the target named is T1, human CD73-His protein (human, UniProt P21589 27-549).
T1 construct: Expressed in HEK-293F with a signal peptide that is not specified; In the ELISAs it was biotinylated with EZ-Link NHS-Biotin (CD73-biotin) and captured on streptavidin; in SPR and the enzyme assay it was used as CD73-His; also called CD73-his antigen; CD73-biotin
T1 sequence: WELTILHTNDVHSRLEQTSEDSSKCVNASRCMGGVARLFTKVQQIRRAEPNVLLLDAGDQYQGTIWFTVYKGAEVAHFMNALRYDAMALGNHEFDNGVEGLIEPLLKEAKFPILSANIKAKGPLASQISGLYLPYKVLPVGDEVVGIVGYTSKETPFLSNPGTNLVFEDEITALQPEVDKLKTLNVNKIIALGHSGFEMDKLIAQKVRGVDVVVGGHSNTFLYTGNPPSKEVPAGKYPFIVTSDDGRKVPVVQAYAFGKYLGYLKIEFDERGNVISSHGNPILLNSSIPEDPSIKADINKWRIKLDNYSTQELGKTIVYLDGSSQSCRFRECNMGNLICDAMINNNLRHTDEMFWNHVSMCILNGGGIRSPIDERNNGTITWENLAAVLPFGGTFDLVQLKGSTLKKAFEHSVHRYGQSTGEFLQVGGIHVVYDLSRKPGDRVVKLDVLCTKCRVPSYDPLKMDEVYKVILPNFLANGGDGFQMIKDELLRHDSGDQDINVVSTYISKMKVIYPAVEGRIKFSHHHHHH
In words: ELISA as in Example 3, antigen CD73-his, antibody titrated, absorbance 450 nm. (In general: An ELISA detects its analyte on a solid surface through an enzyme-linked reagent.)

A further experiment concerns the target T2, CD73-ND-V140A (human, UniProt P21589 27-317).
T2 construct: Alanine mutant of CD73-ND
T2 sequence: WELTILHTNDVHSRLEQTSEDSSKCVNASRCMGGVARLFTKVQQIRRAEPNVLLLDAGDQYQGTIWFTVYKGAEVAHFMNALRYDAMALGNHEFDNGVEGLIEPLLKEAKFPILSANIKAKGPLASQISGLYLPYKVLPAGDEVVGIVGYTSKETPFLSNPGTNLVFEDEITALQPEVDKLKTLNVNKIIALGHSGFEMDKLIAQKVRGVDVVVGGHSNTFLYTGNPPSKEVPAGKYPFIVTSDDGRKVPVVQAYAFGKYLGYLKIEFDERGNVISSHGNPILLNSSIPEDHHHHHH
In words: ELISA, biotinylated antigen on streptavidin plate. As to the method:
(§1) The ELISA plates were coated with SA protein diluted to 1.5 μg/mL in coating buffer (50 mM carbonate coating buffer, pH 9.6) and incubated overnight at 4° C. The supernatant was discarded, and the plates were washed three times with PBST. Then, 5% skimmed milk powder prepared with PBS was added for blocking and the plates were incubated for 2 h at 37° C. After washing the plates once with PBST, CD73-biotin protein (prepared by biotinylating CD73-His protein according to the EZ-Link NHS-Biotin Reagent instructions) was diluted to 0.5 μg/mL and added at 100 μL/well for incubation at room temperature for 1 h. The plates were washed three times with PBST, and the prepared murine-derived monoclonal antibodies against human CD73 were serially diluted with 1% BSA buffer prepared with PBST and added to the ELISA plates at 100 μl/well. The plates were incubated at 37° C. for 1 h. After washing the plates three times with PBST, HRP-labeled goat anti-mouse IgG secondary antibody was added and the plates were incubated for 30 min at 37° C. After washing the plates three times with PBST, the residual droplets were patted dry on absorbent paper as much as possible. Then, 100 μl of TMB color developing solution was added to each well, and the plates were incubated in the dark at room temperature for 5 min for color development. Subsequently, 50 μl of 2M H₂SO₄ stop solution was added to each well to terminate the substrate reaction. The OD values were read at 450 nm using a multimode microplate reader to analyze the binding ability of the tested antibodies to the target antigen human CD73-His.
(§2) Referring to the experimental method in Example 3, the affinity of 48A11-HuV33 for various mutant proteins of CD73-ND was determined. The SA protein was diluted to 1 μg/mL for coating the ELISA plates, and the biotinylated CD73 protein (CD73-biotin) was used at a concentration of 0.1 μg/mL.

For the next experiment, the target named is T3, CD73-ND-his (human, UniProt P21589 27-317).
T3 construct: Biotinylated and captured on streptavidin in the ELISA
T3 sequence: T2 sequence with A140V
In words: ELISA; decline multiple of EC50 against CD73-ND. As for the experimental part:
as §1, §2

The target in a further experiment is T4, CD73-ND-N187A (human, UniProt P21589 27-317).
T4 construct: Alanine mutant of CD73-ND
T4 sequence: T2 sequence with A140V, N187A
Description: ELISA; decline multiple of EC50 against CD73-ND. As to the method:
as §1, §2

The next experiment has as its target T5, CD73-ND-V186A (human, UniProt P21589 27-317).
T5 construct: Alanine mutant of CD73-ND
T5 sequence: T2 sequence with A140V, V186A
In words: ELISA; decline multiple of EC50 against CD73-ND. As to the method:
as §1, §2

B1: 48A11-HuV33 (antibody, human IgG4, V domains shown)
VH: QVQLVQSGAEVKKPGASVKVSCKASGYTFTSYWMHWVRQAPGQGLEWIGEINPSIGRTNYNEKFKSRVTLTRDTSTSTAYMELSSLRSEDTAVYYCARRVYGTMDYWGQGTLVTVSS
VL: DIQMTQSPSSLSASVGDRVTITCKASQDINSYLSWFQQKPGKSPKLLIYRANIWVDGVPSRFSGSGSGQDYTFTISSLQPEDIATYYCLQYDELYTFGQGTKVEIK
notes: Humanized
For orientation: EC50 (read off the curve) means the concentration at which the effect is half-maximal. A lower EC50 (read off the curve) goes with an effect from little substance. What is called EC50 is the concentration at which the effect is half-maximal. Consider B1, for which the “EC50 (read off the curve)” value with human CD73-His protein was roughly 0.04 nM. For the same molecule, it took 0.098 nM to reach a half-maximal effect with CD73-ND-V140A (EC50). The “Ratio(EC50)” value with CD73-ND-his amounted to 0.8 fold; with CD73-ND-N187A it was 0.9 fold; in the experiment with CD73-ND-V186A it was 1.4 fold.
